Test: label from the status in PepcDB records

## MAGAAQSHAVPGFRRNMVTICAMTATIMQALDTTIANVALPYMQGSLSASQDQINWVLTSYIVAAAIMTAPVGWIANRFGRKRIFIICSAGFTIASVMCGLAQDITQMVVFRLLQGVFGAALVPLSQAVMLDSYALHERAKAMSIWGMGVMMGPIMGPSLGAWLTETYSWHWVFFVNLPFGAITVLGLAMFMDETDKNQELKFDWFGFAALAVGIGAMQLALDRGEQLDWFNSPEIIIESIVSVVGFYYFFAHSFTTERPFIQFAIFKDRNFVGGVVFMTVMGLVLFSTMALSSPFLQNVEGYPIMTAGLLLASRGCGTFVAMMIVGRIMRYIEARTLIATGLSLTCASLYVMTGWTDQTSVSSVVVTSIIQGFGFGLVFVPLSTVAFMTLPGQLRTDGTAMLTLVRNVASSVGISVVIAKLSSGTTTAHAILTEHINPFNNALQMPNVTGMIDLSTTTGKAMMDAIVTMQAQIIAFSHDYAMVMFLTAAAVPMAIIIGSTKAALRKQSEAPADHAAVME
  protein production: failed

## MMIDPELRPAFLPAGKLRAAINLGNPILAGTDAAGQAVGVSVDLAREFARRLNAGIELRVFDTAGQSVDAVTREEADIGFFAIDPARGAGIAFTGPYVLIEGAYLVRDDSPLQANEDVDRAGKRVTVGKGSAYDLHLTRALQHLEHHHHHH
  protein production: not failed

## RNGLDLTTYEGQVEGVEIASDPNLKIVGMMTHFPNEGLDEIRRKVDRFKVETKWLMDSAGLKRKDITLHVANSYITLNLPEAHLDMVRPGGMLYGDYPATLPYERIVSFKTRIASLHFFPAGSTIGYGSTKVLERDSILANLPIGYSDGFARSLSNKADVLINGQRARVMGKASMNTTMVDVTDIIGVQANDEVVVFGRQGFEEITAEETEEKSGRILPEHYTIWGATNPRVYR
  protein production: failed

## MNRRVVIVTAVHGPSAPFLPEAYASLCAQELPDGWEWRWVIQEDGRTQDVRPHVPDDPRVVFHQGRHGRQGGPGVARTMALAHADGAYVKVLDADDRLTPGALARDLAALEADPSIGWATSRVLDLLPDGSTAGFPGDPAHGPIERGEVLDFWRANGFRAQVHPATLLVRRDLLLAVGGWMALPASEDTGLLLALNCVSRGWFTEDVGLLYRKWEGQETGQASHVDPAERDARMTVVEARARALASFGWRLPEGTGDFDHLEHHHHHH
  protein production: failed

## SEAGGLPLELWRMILAYLHLPDLGRCSLVCRAWYELILSLDSTRWRQLCLGCTECRHPNWPNQPDVEPESWREAFKQHYLASKTWTKNALDLESSICFSLFRRRRERRTLSVGPGREFDSLGSALAMASLYDRIVLFPGVYEEQGEIILKVPVEIVGQGKLGEVALLASIDQHCSTTRLCNLVFTPAWFSPIMYKTTSGHVQFDNCNFENGHIQVHGPGTCQVKFCTFKNTHIFLHNVPLCVLENCEFVGSENNSVTVEGHPSADKNWAYKYLLGLIKSSPTFLPTEDSD
  protein production: not failed

## MPRPLSHRNLPMTPQGHCDSRFAPLAEAFARLFDNPQERGAALCLEVGGETVVDLWGGVADKDGEQPWQRDTILNLFSCTKTFTAVAVLQLVAEGKLELDAPVAHYWPEFAAAGKAAISVRQLLCHRAGLPALREQMPPEALYDWQAMTTALAAEEPWWTPGEAHGYAPITYGWLLGEVIRRVDGREPGEAIVARTAAPLGLDFHVGLDDSQFGRVAHMARSKGSLGDAAAQRMLKTMMSEPLALTTRAFTNPPSILTSTNKPEWRRMQQPAANGHGNARALAGFYSGLLQGRLLEDELLGQLAHEHAVGEDRTLLTRTRFGLGTMLDQPGVANATYGLGPKAFGHPGAGGSIGFADPERDLAFSFVSNALGPYVLMDPRAQQLARVAGECL
  protein production: failed

## MPPMHELTIEGLGPCEVEEGTRLVRAIEDCGAAVGHRCGGQSQCTTCRVEFAAGEPPVMTEAEYDKLTDIGRLGEMRLACQIVVDRDMTLTPLMTVEDQGWDDAGPEPALMVEPDAEWFSIETLEQR
  protein production: failed

## MTDIHPREILICTIAKLLDGVRHVAVGASSPIPASGAMLLRALKQQAGETGPRISILGSVEHNFFTNGSAELFDCAGQGRIDAFFLGGGQIDGQGNINLVGTGEYPQTQVRWPGSFGSAYLYYVVPRVILFREEHTPRAMVEKVDFISAPGLSDEGVYRPGGPIALLTSKALFRFDKNRRGFELESVHPGYDLAAIKEATGFKFAHDDVPAQTALPDPQVLKLLRERVYDEVAETYPDFAAQMRREIAQPLPRAS
  protein production: failed

## MVVTCPKCGAKNRLGTPPPGQVPVCGACKTPLPWVVEADEKGFAQEVAGAPLTLVDFFAPWCGPCRLVSPILEELARDHAGRLKVVKVNVDEHPGLAARYGVRSVPTLVLFRRGAPVATWVGASPRRVLEERLRPYLEGR
  protein production: not failed

## MSLNKQDGENTLQHEKSSSFGYWCSPSPEQLERLSLKQLAAVSNFVIGRRGYGCITFQHDVDLTAFTKSFREELFGKIVIFRSSKTVEVYPDEATKPMIGHGLNVPAIITLENVYPVDKKTKKPMKDTTKFAEFQVFDRKLRSMREMNYISYNPFGGTWTFKVNHFEGHHHHHH
  protein production: not failed

## NQLLGMHQIEKEMTQYFGIQRCIVVAGDSDIQKKVLSDFGDVLTNTLNLLLPNGENTIAVMGGTTMAMVAENMGSLETEKRHNLFVPARGGIGEAVSVQANSISAVMANKTGGNYRALYVPEQLSRETYNSLLQEPSIQEVLTLISHANCVVHSIGRALHMAARRKMSDDEMVMLKQKNAVAESFGYFFDEEGKVVYKIPRIGLQLKNLQEIPYVVAIAGGKTKAKAIRAYMKNAPKQTWLITDEAAANEILK
  protein production: not failed

## DSKDLALCSMILTEMETHEDAWPFLLPVNLKLVPGYKKVIKKPMDFSTIREKLSSGQYPNLETFALDVRLVFDNCETFNEDDSDIGRAGHNMRKYFEKKWTDTFK
  protein production: not failed

## MNLIWFLIIGGLAGWLAGLIMKGKGFGVLANIGIGIVGSFIGGFLFGLLQLSAHGAIGRLVTATVGAVLLLAIVNKIKKG
  protein production: failed

## MNSLLFVYGTLRKHEKNHHLLAQSACINEQARTKGSLFAAKEGPTVVFNDEDEGYIYGEVYEADELCIHKLDQFFQGYHKQTVFVETDVGIKIALIYFMNKDGCAGFTKISSGDWKEHQMISKSKNPIYYFAYGSCMDNARFQKAGVDHYFQDPVGRAVLKGYTTRFTLKREDGSRADMLEDGGTTEGVLYRIPYSALSYLYKREGVESLTYRPAFVDVEAGGRHYKDCLTFLVLQKEAEIAPPQHYQIEIERGAELYLSPEFTEKLKRHMNSLPKGLEHHHHHH
  protein production: not failed

## MSQALPYRPDIDTLRAAAVLSVIVFHIEKDWLPGGFLGVDIFFVISGFLMTTILHREMSGGGGRFSLKAFYIRRIKRILPAFFAVLAATLAGGFFLFTKDDFFLLWKSALTALGFASNLYFARGKDYFDPAQEEKPLLHIWSLSVEEQFYFVFPILLLLVARKSLRVQFGFLAALCALSLAASFIPSALDKYYLPHLRACELLIGSLTAVWMRCRQPAVGRRCAAVGALFAVCILSTCLFSYSEQTAYFPGPAALIPCLAVAALIYFNHYEHPLKKFFQSKITVAAGLISYSLYLWHWPILAFMRYIGPDNLPPYSPAAAVVLILLLSLFSYHCIEKPFKKWQGSFAQSVLWIYALPMLILGAGSFFAMRLPFMAQYDRLGLTRSNTSCHNNTGKQCLWGDTEKQPELLVLGDSHADHYKTFFDAVGKKEKWSATMVSADACAYVEGYASRVFQNWAACRAVYRYAEEHLPRYSKVVLAMRWGSQMPENSRSLAYDAGFFQKFDRMLHKLSSEKQAVYLMADNLASSYNVQRAYILSSRIPGYRQALRPDDESTLKANARIRELAAKYPNVYIIDAAAYIPADFQIGGLPVYSDKDHINPYGGTELAKRFSEKQRFLDTRHNH
  protein production: failed

## MVSVGGDSVADSTVNQAKQSIRRSESITMERIVSFTLEEVPESIAKLEDKLFSYLLDLEGLASGRQRQTMSGEVGFGVLKAIDDQTIQDRLHW
  protein production: failed

## MDFDLSEEQRLLKESVEGLLKGSYDFDSRKKYAKEKGGWSRAVWGKFAEQGLLGLPFSEEDGGFGAGAVETMIVMEALGHSLVLEPYLPTVVIGGGFLRRAGSAAQKAAHLPGIIDGSKTFAFAQLEKNSRWDLGDVSTTAKKSGDGWVIDGEKFVVLNGEAADTLIVTARTKGGQRDRTGVGVFLVPADAKGITRKGYPTQDGLHAADITFTGVQVGADAAIGDPENALELIEAVVDDARTALCAEAVGLMDESLTTTVEYIKTRKQFGVPIGSFQVLQHRAADMFVATEQARSMAMFATMAAEFDDAKERAGAIAAAKVQIGKSGKFVGQQSIQLHGGIGMTMEAKIGHYFKRLTMIEQTFGDTDHHLARVSAGGGLI
  protein production: not failed

— a protein production outcome set (Wang et al. 2014)
